Laboratory results as given in publication PMC2532734.

Columns and labels:
Assay in all cases: NMR 15N-HSQC titration
[1] = molecular target: T1, KSRP KH3 (UniProt Q92945 323-418)
T1 sequence: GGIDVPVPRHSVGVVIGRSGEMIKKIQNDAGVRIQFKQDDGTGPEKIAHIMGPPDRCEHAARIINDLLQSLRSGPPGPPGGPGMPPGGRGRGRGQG

[2] = molecular target: T1, KSRP KH3; remark: listed apart in the source
[3] = molecular target: T2, KSRP KH4 (UniProt Q92945 423-525)
T2 sequence: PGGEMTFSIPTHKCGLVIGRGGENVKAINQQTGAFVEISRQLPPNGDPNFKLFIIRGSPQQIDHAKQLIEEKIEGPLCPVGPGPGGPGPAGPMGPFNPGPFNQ

[4] = molecular target: T3, KSRP KH1 (UniProt Q92945 130-218)
T3 sequence: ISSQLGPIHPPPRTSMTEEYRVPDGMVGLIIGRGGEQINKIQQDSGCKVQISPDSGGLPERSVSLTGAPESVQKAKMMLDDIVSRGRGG

[5] = molecular target: T4, KSRP KH2 (UniProt Q92945 233-305)
T4 sequence: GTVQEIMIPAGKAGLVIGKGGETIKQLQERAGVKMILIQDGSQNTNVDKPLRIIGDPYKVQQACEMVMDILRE

[6] = molecular target: T1, KSRP KH3; remark: listed apart in the source

**Q.** With UAGUAU (ssRNA) as the binder, how does the Kd [1] read?
**A.** Its Kd is 26 ± 5 µM.

**Q.** With UAUUAU (ssRNA) as the binder, how does the binding signal [2] read?
**A.** Its binding signal is roughly 100 fold weaker than UGGGU.

**Q.** What does the source list for UCCCC (ssRNA) [uCCCC]?
**A.** binding result [3]: no binding; binding result [4]: no binding; binding result [5]: no binding; binding result [6]: no binding

**Q.** How did the Kd [1] turn out when UAGGUU (ssRNA) [UAGGUU (UAGGUA in Fig 4b legend)] was run?
**A.** The Kd was 6 ± 2 µM.
